Laboratory results reported in patent US7560527.

Target: natural cellular receptor for adenovirus on 293 human cells (human)
Assay: cell-based or functional assay

For “native Ad5 fiber carried by the recombinant AdLacZ virus (from UniProt P11818 1-581)”, the degree of inhibition of the infection of 293-cells with AdLacZ by recombinant Ad5 knob at 100 µg/ml was 95%.
